From US9249224B2 (RINAT NEUROSCIENCE CORP., priority 2011, dated 2016)

System: ALS
Test: Serum ALS levels in cynomolgus monkeys after a single antibody dose
Type: in vivo, cynomolgus monkey
Conditions: for serum ALS levels decreased to about: by 96 hours; for serum ALS decrease below control: by 72 hours
Description: To determine if GHR antagonist monoclonal antibodies can affect IGF-1, IGFBP-3, and ALS levels in vivo by inhibiting the function of GHR, the effect of humanized anti-human GHR antibody SS1 was tested in cynomolgus monkeys. A dose-response study was conducted to test for changes in IGF-1, IGFBP-3, and ALS levels following a single dose of SS1. Eight naïve female cynomolgus monkeys were injected intravenously with a single dose of SS1 or negative control human IgG2, in 1×PBS 0.01% Tween™ 20. Two monkeys were dosed with 30 mg/kg SS1, two were dosed with 10 mg/kg SS1, two were dosed with 3 mg/kg SS1, and two were dosed with 30 mg/kg negative control human IgG2Δa on Day 1. […] Serum was also taken from the 30 mg/kg SS1 and negative control treated animals at 864 h post-dose.
Serum samples were analyzed for changes in ALS levels compared to baseline using a BioVendor™ Human ALS ELISA kit (cat. #RMEE35R).
Six naïve female cynomolgus monkeys were injected either intravenously or subcutaneously with a single dose of […] or negative control human IgG2Δa in 1×PBS 0.01% Tween™ 20. Two monkeys were dosed with 3 mg/kg SS1 intravenously, two were dosed with 3 mg/kg SS1 subcutaneously, and two were dosed with 3 mg/kg negative control human IgG2Δa subcutaneously on Day 1. Serum samples were taken from all animals at the following timepoints: pre-dose, 24 h, 72 h, 120 h, 168 h, 216 h, 264 h, 312 h, 360 h, 408 h, 456 h and 504 h.

B1: SS1: humanized GHR antagonist antibody; VL SEQ ID NO: 7, VH SEQ ID NO: 8; hIgG2Δa heavy chain SEQ ID NO: 134, light chain SEQ ID NO: 135 (antibody)
heavy: EVQLVESGGGLVKPGGSLRLSCAASGFTFSDAWMDWVRQAPGKGLEWVAEIRSKANYHATYYAESVKGRFTISRDDSKNTLYLQMNSLKTEDTAVYYCTLIRDYWGQGTLVTVSSASTKGPSVFPLAPCSRSTSESTAALGCLVKDYFPEPVTVSWNSGALTSGVHTFPAVLQSSGLYSLSSVVTVPSSNFGTQTYTCNVDHKPSNTKVDKTVERKCCVECPPCPAPPVAGPSVFLFPPKPKDTLMISRTPEVTCVVVDVSHEDPEVQFNWYVDGVEVHNAKTKPREEQFNSTFRVVSVLTVVHQDWLNGKEYKCKVSNKGLPSSIEKTISKTKGQPREPQVYTLPPSREEMTKNQVSLTCLVKGFYPSDIAVEWESNGQPENNYKTTPPMLDSDGSFFLYSKLTVDKSRWQQGNVFSCSVMHEALHNHYTQKSLSLSPGK
light: EIVLTQSPGTLSLSPGERATLSCTATSSVSSSYLNWYQQKPGQAPRLLIYSTSNLASGIPDRFSGSGSGTDFTLTISRLEPEDFAVYYCHQYHRSTPTFGGGTKVEIKRTVAAPSVFIFPPSDEQLKSGTASVVCLLNNFYPREAKVQWKVDNALQSGNSQESVTEQDSKDSTYSLSSTLTLSKADYEKHKVYACEVTHQGLSSPVTKSFNRGEC
modifications: Humanized and/or affinity matured antibody sequence
Table 12, cynomolgus monkeys, SS1 3 mg/kg IV single dose, 312 h post-injection
  serum ALS levels (% change from baseline): −22.0 +/− 8.2%
Table 12, cynomolgus monkeys, SS1 3 mg/kg IV single dose, 336 h post-injection
  serum ALS levels (% change from baseline): −23.7 +/− 6.4%
Table 12, cynomolgus monkeys, SS1 10 mg/kg IV single dose, 24 h post-injection
  serum ALS levels (% change from baseline): 27.3 +/− 32.1%
Table 12, cynomolgus monkeys, SS1 10 mg/kg IV single dose, 48 h post-injection
  serum ALS levels (% change from baseline): −9.4 +/− 23.4%
Table 12, cynomolgus monkeys, SS1 10 mg/kg IV single dose, 72 h post-injection
  serum ALS levels (% change from baseline): −8.0 +/− 35.2%
Table 12, cynomolgus monkeys, SS1 10 mg/kg IV single dose, 96 h post-injection
  serum ALS levels (% change from baseline): −24.1 +/− 23.6%
Table 12, cynomolgus monkeys, SS1 10 mg/kg IV single dose, 120 h post-injection
  serum ALS levels (% change from baseline): −17.5 +/− 30.4%
Table 12, cynomolgus monkeys, SS1 10 mg/kg IV single dose, 144 h post-injection
  serum ALS levels (% change from baseline): −46.5 +/− 1.9%
Table 12, cynomolgus monkeys, SS1 10 mg/kg IV single dose, 192 h post-injection
  serum ALS levels (% change from baseline): −39.4 +/− 3.3%
Table 12, cynomolgus monkeys, SS1 10 mg/kg IV single dose, 312 h post-injection
  serum ALS levels (% change from baseline): −38.7 +/− 4.1%
Table 12, cynomolgus monkeys, SS1 10 mg/kg IV single dose, 336 h post-injection
  serum ALS levels (% change from baseline): −40.4 +/− 0.4%
Table 12, cynomolgus monkeys, SS1 30 mg/kg IV single dose, 24 h post-injection
  serum ALS levels (% change from baseline): 3.9 +/− 4.2%
Table 12, cynomolgus monkeys, SS1 30 mg/kg IV single dose, 48 h post-injection
  serum ALS levels (% change from baseline): −35.1 +/− 1.9%
Table 12, cynomolgus monkeys, SS1 30 mg/kg IV single dose, 72 h post-injection
  serum ALS levels (% change from baseline): −34.9 +/− 10.5%
Table 12, cynomolgus monkeys, SS1 30 mg/kg IV single dose, 96 h post-injection
  serum ALS levels (% change from baseline): −48.8 +/− 8.0%
Table 12, cynomolgus monkeys, SS1 30 mg/kg IV single dose, 120 h post-injection
  serum ALS levels (% change from baseline): −41.2 +/− 13.9%
Table 12, cynomolgus monkeys, SS1 30 mg/kg IV single dose, 144 h post-injection
  serum ALS levels (% change from baseline): −50.0 +/− 4.4%
Table 12, cynomolgus monkeys, SS1 30 mg/kg IV single dose, 192 h post-injection
  serum ALS levels (% change from baseline): −50.2 +/− 2.0%
Table 12, cynomolgus monkeys, SS1 30 mg/kg IV single dose, 312 h post-injection
  serum ALS levels (% change from baseline): −47.1 +/− 2.7%
Table 12, cynomolgus monkeys, SS1 30 mg/kg IV single dose, 336 h post-injection
  serum ALS levels (% change from baseline): −50.1 +/− 4.4%
Table 14, cynomolgus monkeys, SS1 3 mg/kg IV single dose, 24 hour post-injection
  serum ALS levels (% change from baseline): −4.5 +/− 4.6%
Table 14, cynomolgus monkeys, SS1 3 mg/kg IV single dose, 72 hour post-injection
  serum ALS levels (% change from baseline): −31.1 +/− 10.1%
Table 14, cynomolgus monkeys, SS1 3 mg/kg IV single dose, 120 hour post-injection
  serum ALS levels (% change from baseline): −37.5 +/− 9.4%
Table 14, cynomolgus monkeys, SS1 3 mg/kg IV single dose, 168 hour post-injection
  serum ALS levels (% change from baseline): −32.9 +/− 4.0%
Table 14, cynomolgus monkeys, SS1 3 mg/kg IV single dose, 264 hour post-injection
  serum ALS levels (% change from baseline): −9.3 +/− 2.5%
Table 14, cynomolgus monkeys, SS1 3 mg/kg IV single dose, 312 hour post-injection
  serum ALS levels (% change from baseline): −4.9 +/− 3.0%
Table 14, cynomolgus monkeys, SS1 3 mg/kg IV single dose, 360 hour post-injection
  serum ALS levels (% change from baseline): −9.7 +/− 9.6%
Table 14, cynomolgus monkeys, SS1 3 mg/kg SQ single dose, 24 hour post-injection
  serum ALS levels (% change from baseline): −15.9 +/− 0.2%
Table 14, cynomolgus monkeys, SS1 3 mg/kg SQ single dose, 72 hour post-injection
  serum ALS levels (% change from baseline): −42.7 +/− 0.5%
Table 14, cynomolgus monkeys, SS1 3 mg/kg SQ single dose, 120 hour post-injection
  serum ALS levels (% change from baseline): −41.1 +/− 7.1%
Table 14, cynomolgus monkeys, SS1 3 mg/kg SQ single dose, 168 hour post-injection
  serum ALS levels (% change from baseline): −33.7 +/− 6.5%
Table 14, cynomolgus monkeys, SS1 3 mg/kg SQ single dose, 264 hour post-injection
  serum ALS levels (% change from baseline): −16.5 +/− 13.2%
Table 14, cynomolgus monkeys, SS1 3 mg/kg SQ single dose, 312 hour post-injection
  serum ALS levels (% change from baseline): −5.0 +/− 13.6%
Table 14, cynomolgus monkeys, SS1 3 mg/kg SQ single dose, 360 hour post-injection
  serum ALS levels (% change from baseline): −10.0 +/− 10.2%
Cynomolgus monkeys, SS1 3 mg/kg IV single dose
  serum ALS levels decreased to about: about 51%
Cynomolgus monkeys, SS1 10 mg/kg IV single dose
  serum ALS levels decreased to about: ~24%
Cynomolgus monkeys, SS1 30 mg/kg IV single dose
  serum ALS levels decreased to about: ~49%
Cynomolgus monkeys, single dose 3 mg/kg SS1 SQ or IV
  time by which serum ALS levels returned to baseline levels: ≤ 312 h
Cynomolgus monkeys, single dose 3 mg/kg SS1 intravenous (IV)
  serum ALS decrease below control: about 31%
Cynomolgus monkeys, single dose 3 mg/kg SS1 subcutaneous (SQ)
  serum ALS decrease below control: about 43%
Single IV dose 3, 10 or 30 mg/kg
  effect on serum ALS levels in cynomolgus monkey: reduces serum ALS levels
